Experimental findings from article doi:10.1101/2021.11.02.466367 are described below.

In general, stoichiometry N refers to a count of units in the complex or per binding partner.

Several values for one entry are separate records, joined by “and”; a condition that tells them apart may be missing. Identical values can stand only once.

Assay [1] addresses Csx28 (Prevotella buccae Type VI-B2 CRISPR-Cas accessory protein), recombinant, DDM-solubilised (Prevotella buccae ATCC 33574). In words: SEC-MALS. A general note: SEC sorts molecules by how far they enter the pores of the column.
For assay [2] the target is unchanged. In words: cryo-EM structure.

Take “Csx28 (Prevotella buccae Type VI-B2 CRISPR-Cas accessory protein), recombinant, DDM-solubilised (natural protein)”: the stoichiometry N in assay [1] was 8 and 16; in assay [2], 8 and 16.
